In paper doi:10.1101/2025.08.30.673243:

B1: PDS5B labelled with JF646 (natural protein)
chain: MAHSKTRTNDGKITYPPGVKEISDKISKEEMVRRLKMVVKTFMDMDQDSEEEKELYLNLALHLASDFFLKHPDKDVRLLVACCLADIFRIYAPEAPYTSPDKLKDIFMFITRQLKGLEDTKSPQFNRYFYLLENIAWVKSYNICFELEDSNEIFTQLYRTLFSVINNGHNQKVHMHMVDLMSSIICEGDTVSQELLDTVLVNLVPAHKNLNKQAYDLAKALLKRTAQAIEPYITNFFNQVLMLGKTSISDLSEHVFDLILELYNIDSHLLLSVLPQLEFKLKSNDNEERLQVVKLLAKMFGAKDSELASQNKPLWQCYLGRFNDIHVPIRLECVKFASHCLMNHPDLAKDLTEYLKVRSHDPEEAIRHDVIVSIVTAAKKDILLVNDHLLNFVRERTLDKRWRVRKEAMMGLAQIYKKYALQSAAGKDAAKQIAWIKDKLLHIYYQNSIDDRLLVERIFAQYMVPHNLETTERMKCLYYLYATLDLNAVKALNEMWKCQNLLRHQVKDLLDLIKQPKTDASVKAIFSKVMVITRNLPDPGKAQDFMKKFTQVLEDDEKIRKQLEVLVSPTCSCKQAEGCVREITKKLGNPKQPTNPFLEMIKFLLERIAPVHIDTESISALIKQVNKSIDGTADDEDEGVPTDQAIRAGLELLKVLSFTHPISFHSAETFESLLACLKMDDEKVAEAALQIFKNTGSKIEEDFPHIRSALLPVLHHKSKKGPPRQAKYAIHCIHAIFSSKETQFAQIFEPLHKSLDPSNLEHLITPLVTIGHIALLAPDQFAAPLKSLVATFIVKDLLMNDRLPGKKTTKLWVPDEEVSPETMVKIQAIKMMVRWLLGMKNNHSKSGTSTLRLLTTILHSDGDLTEQGKISKPDMSRLRLAAGSAIVKLAQEPCYHEIITLEQYQLCALAINDECYQVRQVFAQKLHKGLSRLRLPLEYMAICALCAKDPVKERRAHARQCLVKNINVRREYLKQHAAVSEKLLSLLPEYVVPYTIHLLAHDPDYVKVQDIEQLKDVKECLWFVLEILMAKNENNSHAFIRKMVENIKQTKDAQGPDDAKMNEKLYTVCDVAMNIIMSKSTTYSLESPKDPVLPARFFTQPDKNFSNTKNYLPPEMKSFFTPGKPKTTNVLGAVNKPLSSAGKQSQTKSSRMETVSNASSSSNPSSPGRIKGRLDSSEMDHSENEDYTMSSPLPGKKSDKRDDSDLVRSELEKPRGRKKTPVTEQEEKLGMDDLTKLVQEQKPKGSQRSRKRGHTASESDEQQWPEEKRLKEDILENEDEQNSPPKKGKRGRPPKPLGGGTPKEEPTMKTSKKGSKKKSGPPAPEEEEEEERQSGNTEQKSKSKQHRVSRRAQQRAESPESSAIESTQSTPQKGRGRPSKTPSPSQPKKNVRVGRSKQAATKENDSSEEVDVFQGSSPVDDIPQEETEEEEVSTVNVRRRSAKRERR
modifications: JF646-HaloTag ligand on the HaloTag

Legend:
[1] = target: HeLa cohesin (unlabelled cohesin-STAG1) (human (endogenous in HeLa)) (UniProt Q14683); assay: single-molecule fluorescence imaging of DNA loop extrusion
UniProt Q14683, sequence (Q14683 whole entry, chain 1 of 4): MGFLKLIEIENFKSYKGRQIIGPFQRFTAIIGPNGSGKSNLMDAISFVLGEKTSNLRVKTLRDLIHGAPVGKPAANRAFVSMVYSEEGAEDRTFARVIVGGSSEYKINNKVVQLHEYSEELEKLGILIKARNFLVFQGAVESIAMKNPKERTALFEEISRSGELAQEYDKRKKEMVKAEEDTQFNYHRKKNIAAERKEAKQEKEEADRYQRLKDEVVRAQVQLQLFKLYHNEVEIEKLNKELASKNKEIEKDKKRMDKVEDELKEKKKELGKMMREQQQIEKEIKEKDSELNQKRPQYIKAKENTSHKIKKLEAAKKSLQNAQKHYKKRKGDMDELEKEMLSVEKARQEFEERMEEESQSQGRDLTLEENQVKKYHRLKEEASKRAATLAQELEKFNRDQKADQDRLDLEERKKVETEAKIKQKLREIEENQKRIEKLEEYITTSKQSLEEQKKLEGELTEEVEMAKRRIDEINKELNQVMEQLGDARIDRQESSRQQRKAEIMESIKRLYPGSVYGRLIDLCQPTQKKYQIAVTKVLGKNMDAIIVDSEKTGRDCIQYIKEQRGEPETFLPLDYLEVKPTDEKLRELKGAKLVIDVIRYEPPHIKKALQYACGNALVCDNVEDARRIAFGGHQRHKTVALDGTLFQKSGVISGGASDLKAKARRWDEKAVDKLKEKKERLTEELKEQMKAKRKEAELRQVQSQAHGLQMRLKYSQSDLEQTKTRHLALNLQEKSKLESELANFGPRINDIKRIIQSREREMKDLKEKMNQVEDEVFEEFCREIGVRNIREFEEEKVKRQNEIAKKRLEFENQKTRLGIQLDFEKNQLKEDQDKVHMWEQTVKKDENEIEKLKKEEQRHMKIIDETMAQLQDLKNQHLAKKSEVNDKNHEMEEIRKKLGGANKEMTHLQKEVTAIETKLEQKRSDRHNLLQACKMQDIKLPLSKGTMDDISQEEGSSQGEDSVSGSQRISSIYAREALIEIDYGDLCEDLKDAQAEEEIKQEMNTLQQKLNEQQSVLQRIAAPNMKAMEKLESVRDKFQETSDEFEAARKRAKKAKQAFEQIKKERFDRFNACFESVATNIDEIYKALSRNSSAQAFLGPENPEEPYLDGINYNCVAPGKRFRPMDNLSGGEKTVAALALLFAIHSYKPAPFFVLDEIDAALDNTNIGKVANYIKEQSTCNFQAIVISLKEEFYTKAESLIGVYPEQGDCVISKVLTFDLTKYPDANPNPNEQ
UniProt Q14683, sequence (Q9UQE7 whole entry, chain 2 of 4, further chain): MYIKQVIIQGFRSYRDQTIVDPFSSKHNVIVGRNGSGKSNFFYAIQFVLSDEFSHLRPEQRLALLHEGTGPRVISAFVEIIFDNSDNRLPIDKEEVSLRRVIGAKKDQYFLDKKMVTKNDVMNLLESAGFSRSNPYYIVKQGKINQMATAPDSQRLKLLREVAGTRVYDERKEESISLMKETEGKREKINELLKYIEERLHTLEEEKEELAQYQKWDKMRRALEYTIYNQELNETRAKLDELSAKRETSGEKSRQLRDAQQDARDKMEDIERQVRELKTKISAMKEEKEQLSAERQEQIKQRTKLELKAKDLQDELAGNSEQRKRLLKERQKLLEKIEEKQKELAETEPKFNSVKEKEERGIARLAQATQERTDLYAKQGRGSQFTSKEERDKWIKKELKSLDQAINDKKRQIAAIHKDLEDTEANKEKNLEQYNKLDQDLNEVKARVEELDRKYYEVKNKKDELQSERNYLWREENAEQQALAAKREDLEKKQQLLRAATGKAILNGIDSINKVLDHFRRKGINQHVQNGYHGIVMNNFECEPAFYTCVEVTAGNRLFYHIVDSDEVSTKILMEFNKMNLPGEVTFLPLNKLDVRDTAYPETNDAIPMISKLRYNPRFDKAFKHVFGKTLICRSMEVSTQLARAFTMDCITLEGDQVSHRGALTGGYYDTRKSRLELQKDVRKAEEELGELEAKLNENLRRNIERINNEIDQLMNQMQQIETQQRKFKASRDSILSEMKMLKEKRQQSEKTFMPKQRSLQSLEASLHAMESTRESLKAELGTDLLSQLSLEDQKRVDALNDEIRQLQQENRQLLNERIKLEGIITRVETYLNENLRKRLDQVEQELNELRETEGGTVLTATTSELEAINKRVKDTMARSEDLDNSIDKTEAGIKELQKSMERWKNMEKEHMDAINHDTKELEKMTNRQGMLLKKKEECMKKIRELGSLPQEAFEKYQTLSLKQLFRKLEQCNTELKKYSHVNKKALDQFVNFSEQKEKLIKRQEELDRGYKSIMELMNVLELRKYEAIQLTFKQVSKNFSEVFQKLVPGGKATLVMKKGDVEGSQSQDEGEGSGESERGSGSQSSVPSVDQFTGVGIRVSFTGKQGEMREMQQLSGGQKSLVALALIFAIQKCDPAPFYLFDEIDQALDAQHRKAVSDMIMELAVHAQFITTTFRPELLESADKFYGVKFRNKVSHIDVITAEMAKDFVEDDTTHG
UniProt Q14683, sequence (O60216 whole entry, chain 3 of 4, further chain): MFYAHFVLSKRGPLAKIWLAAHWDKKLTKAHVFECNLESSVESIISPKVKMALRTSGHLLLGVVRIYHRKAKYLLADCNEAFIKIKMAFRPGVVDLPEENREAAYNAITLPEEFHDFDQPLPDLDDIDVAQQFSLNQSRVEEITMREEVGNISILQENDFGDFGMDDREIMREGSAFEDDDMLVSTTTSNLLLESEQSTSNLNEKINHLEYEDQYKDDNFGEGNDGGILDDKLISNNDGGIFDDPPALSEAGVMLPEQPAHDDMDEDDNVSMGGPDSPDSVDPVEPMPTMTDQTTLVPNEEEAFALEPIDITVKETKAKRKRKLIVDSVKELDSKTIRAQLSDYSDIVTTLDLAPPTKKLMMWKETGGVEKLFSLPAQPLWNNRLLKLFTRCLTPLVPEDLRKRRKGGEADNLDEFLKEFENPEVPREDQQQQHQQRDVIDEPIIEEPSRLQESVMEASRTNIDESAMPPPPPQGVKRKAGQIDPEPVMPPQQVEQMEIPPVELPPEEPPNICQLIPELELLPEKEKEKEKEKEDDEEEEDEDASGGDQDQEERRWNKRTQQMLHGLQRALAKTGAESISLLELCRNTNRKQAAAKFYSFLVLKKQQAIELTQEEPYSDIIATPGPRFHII
UniProt Q14683, sequence (Q8WVM7 whole entry, chain 4 of 4, further chain): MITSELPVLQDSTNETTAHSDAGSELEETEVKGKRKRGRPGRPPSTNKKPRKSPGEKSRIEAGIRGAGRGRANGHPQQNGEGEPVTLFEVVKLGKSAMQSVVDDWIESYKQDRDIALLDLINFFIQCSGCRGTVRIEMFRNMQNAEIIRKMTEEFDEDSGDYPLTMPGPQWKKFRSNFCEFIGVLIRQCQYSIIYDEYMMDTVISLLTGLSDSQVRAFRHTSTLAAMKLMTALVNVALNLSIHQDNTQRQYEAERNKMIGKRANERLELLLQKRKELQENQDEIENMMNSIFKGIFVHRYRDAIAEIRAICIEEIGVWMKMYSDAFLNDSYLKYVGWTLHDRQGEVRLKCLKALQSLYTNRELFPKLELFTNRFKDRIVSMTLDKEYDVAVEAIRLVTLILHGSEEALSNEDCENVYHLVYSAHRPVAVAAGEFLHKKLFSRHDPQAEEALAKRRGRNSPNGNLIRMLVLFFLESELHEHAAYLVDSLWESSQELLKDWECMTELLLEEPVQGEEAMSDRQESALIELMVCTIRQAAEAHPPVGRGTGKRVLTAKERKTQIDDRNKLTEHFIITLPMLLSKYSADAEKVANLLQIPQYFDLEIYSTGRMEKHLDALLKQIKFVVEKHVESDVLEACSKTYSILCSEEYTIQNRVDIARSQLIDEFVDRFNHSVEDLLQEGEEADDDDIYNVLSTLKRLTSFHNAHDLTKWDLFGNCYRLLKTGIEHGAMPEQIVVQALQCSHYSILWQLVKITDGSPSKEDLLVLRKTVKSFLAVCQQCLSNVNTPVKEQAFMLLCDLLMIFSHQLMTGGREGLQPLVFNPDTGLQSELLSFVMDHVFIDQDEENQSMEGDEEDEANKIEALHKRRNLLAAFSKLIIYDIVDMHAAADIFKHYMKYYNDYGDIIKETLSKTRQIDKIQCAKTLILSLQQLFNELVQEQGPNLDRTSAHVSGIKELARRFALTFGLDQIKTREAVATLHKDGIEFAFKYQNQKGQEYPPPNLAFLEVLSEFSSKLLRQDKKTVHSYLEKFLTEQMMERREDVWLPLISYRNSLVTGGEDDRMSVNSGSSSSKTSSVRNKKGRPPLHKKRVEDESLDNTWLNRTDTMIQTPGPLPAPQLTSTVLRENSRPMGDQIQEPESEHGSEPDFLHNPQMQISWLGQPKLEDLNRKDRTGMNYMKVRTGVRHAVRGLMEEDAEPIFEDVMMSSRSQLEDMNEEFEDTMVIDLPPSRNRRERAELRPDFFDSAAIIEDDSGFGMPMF

[2] = target: HeLa cohesin (unlabelled cohesin-STAG1) (human (endogenous in HeLa)) (UniProt Q14683); assay: as above; remark: listed apart in the source

Molecule | median residence time of NIPBL on loops, no PDS5B added [1] | residence time of NIPBL on loops on which NIPBL was exchanged with PDS5B [1] | median time for which NIPBL and PDS5B were both on the loop during exchange [2]
NIPBL-ΔN labelled with ATTO550 (BB241) (domain or fragment) | 50 s | 38 s | –
B1 | – | – | 3 s
